Reference: paper PMC2649695 (Circulation research, 2009)

Target: T1, GST-MBS 683-866 (UniProt O14974 683-866)
T1 sequence (looked up): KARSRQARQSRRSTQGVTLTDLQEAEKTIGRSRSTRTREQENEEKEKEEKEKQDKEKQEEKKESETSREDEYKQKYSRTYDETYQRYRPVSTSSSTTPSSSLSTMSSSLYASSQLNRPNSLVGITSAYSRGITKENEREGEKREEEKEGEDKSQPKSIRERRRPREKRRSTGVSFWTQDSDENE
Experiment: pull-down

fold bound relative to mycROCK1: 2 fold
B1: Myc-tagged ROCK2 (natural protein, UniProt O75116 1-1388, looked up)
chain: MSRPPPTGKMPGAPETAPGDGAGASRQRKLEALIRDPRSPINVESLLDGLNSLVLDLDFPALRKNKNIDNFLNRYEKIVKKIRGLQMKAEDYDVVKVIGRGAFGEVQLVRHKASQKVYAMKLLSKFEMIKRSDSAFFWEERDIMAFANSPWVVQLFYAFQDDRYLYMVMEYMPGGDLVNLMSNYDVPEKWAKFYTAEVVLALDAIHSMGLIHRDVKPDNMLLDKHGHLKLADFGTCMKMDETGMVHCDTAVGTPDYISPEVLKSQGGDGFYGRECDWWSVGVFLYEMLVGDTPFYADSLVGTYSKIMDHKNSLCFPEDAEISKHAKNLICAFLTDREVRLGRNGVEEIRQHPFFKNDQWHWDNIRETAAPVVPELSSDIDSSNFDDIEDDKGDVETFPIPKAFVGNQLPFIGFTYYRENLLLSDSPSCRETDSIQSRKNEESQEIQKKLYTLEEHLSNEMQAKEELEQKCKSVNTRLEKTAKELEEEITLRKSVESALRQLEREKALLQHKNAEYQRKADHEADKKRNLENDVNSLKDQLEDLKKRNQNSQISTEKVNQLQRQLDETNALLRTESDTAARLRKTQAESSKQIQQLESNNRDLQDKNCLLETAKLKLEKEFINLQSALESERRDRTHGSEIINDLQGRICGLEEDLKNGKILLAKVELEKRQLQERFTDLEKEKSNMEIDMTYQLKVIQQSLEQEEAEHKATKARLADKNKIYESIEEAKSEAMKEMEKKLLEERTLKQKVENLLLEAEKRCSLLDCDLKQSQQKINELLKQKDVLNEDVRNLTLKIEQETQKRCLTQNDLKMQTQQVNTLKMSEKQLKQENNHLMEMKMNLEKQNAELRKERQDADGQMKELQDQLEAEQYFSTLYKTQVRELKEECEEKTKLGKELQQKKQELQDERDSLAAQLEITLTKADSEQLARSIAEEQYSDLEKEKIMKELEIKEMMARHKQELTEKDATIASLEETNRTLTSDVANLANEKEELNNKLKDVQEQLSRLKDEEISAAAIKAQFEKQLLTERTLKTQAVNKLAEIMNRKEPVKRGNDTDVRRKEKENRKLHMELKSEREKLTQQMIKYQKELNEMQAQIAEESQIRIELQMTLDSKDSDIEQLRSQLQALHIGLDSSSIGSGPGDAEADDGFPESRLEGWLSLPVRNNTKKFGWVKKYVIVSSKKILFYDSEQDKEQSNPYMVLDIDKLFHVRPVTQTDVYRADAKEIPRIFQILYANEGESKKEQEFPVEPVGEKSNYICHKGHEFIPTLYHFPTNCEACMKPLWHMFKPPPALECRRCHIKCHKDHMDKKEEIIAPCKVYYDISTAKNLLLLANSTEEQQKWVSRLVKKIPKKPPAPDPFARSSPRTSMKIQQNQSIRRPSRQLAPNKPS
